What was measured:
activin A = target: T1, activin A (UniProt P08476 311-426); experiment: SPR (Biacore), anti-Fc capture of receptor, 37 C
T1 construct: The same holds for m2-m11
T1 sequence (looked up): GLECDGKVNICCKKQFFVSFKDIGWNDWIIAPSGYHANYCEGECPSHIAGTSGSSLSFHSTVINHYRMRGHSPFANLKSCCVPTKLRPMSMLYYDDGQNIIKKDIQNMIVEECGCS
Description: (§1) A Biacore™-based binding assay was used to compare the ligand binding kinetics of an ActRIIB-Fc:ActRIIB(L79E)-Fc heterodimer with those of unmodified ActRIIB-Fc homodimer. Fusion proteins were captured onto the system using an anti-Fc antibody. Ligands were then injected and allowed to flow over the captured receptor protein at 37° C. Results are summarized in the table below, in which ligand off-rates (kd) most indicative of effective ligand traps are denoted in bold.

BMP10 = target: T2, BMP10 (UniProt O95393 317-424); experiment: SPR (Biacore), anti-Fc capture of receptor, 37 C
T2 sequence (looked up): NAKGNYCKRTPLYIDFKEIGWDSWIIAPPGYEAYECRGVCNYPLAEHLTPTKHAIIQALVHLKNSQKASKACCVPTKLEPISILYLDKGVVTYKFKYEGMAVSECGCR
Description: as §1

- fold faster off-rate than ActRIIB-Fc homodimer (activin A): ~10 fold
- fold faster off-rate than ActRIIB-Fc homodimer (BMP10): ~10 fold
B1: ActRIIB-Fc:ActRIIB(L79E)-Fc heterodimer (Fc fusion)
chain 1: GRGEAETRECIYYNANWELERTNQSGLERCEGEQDKRLHCYASWRNSSGTIELVKKGCWEDDFNCYDRQECVATEENPQVYFCCCEGNFCNERFTHLPEAGGPEVTYEPPPTAPTGGGTHTCPPCPAPELLGGPSVFLFPPKPKDTLMISRTPEVTCVVVDVSHEDPEVKFNWYVDGVEVHNAKTKPREEQYNSTYRVVSVLTVLHQDWLNGKEYKCKVSNKALPAPIEKTISKAKGQPREPQVYTLPPSREEMTKNQVSLTCLVKGFYPSDIAVEWESNGQPENNYDTTPPVLDSDGSFFLYSDLTVDKSRWQQGNVFSCSVMHEALHNHYTQKSLSLSPG
chain 2: GRGEAETRECIYYNANWELERTNQSGLERCEGEQDKRLHCYASWRNSSGTIELVKKGCWLDDFNCYDRQECVATEENPQVYFCCCEGNFCNERFTHLPEAGGPEVTYEPPPTAPTGGGTHTCPPCPAPELLGGPSVFLFPPKPKDTLMISRTPEVTCVVVDVSHEDPEVKFNWYVDGVEVHNAKTKPREEQYNSTYRVVSVLTVLHQDWLNGKEYKCKVSNKALPAPIEKTISKAKGQPREPQVYTLPPSRKEMTKNQVSLTCLVKGFYPSDIAVEWESNGQPENNYKTTPPVLKSDGSFFLYSKLTVDKSRWQQGNVFSCSVMHEALHNHYTQKSLSLSPGK
notes: the receptor domains are the same in both; also called ActRIIB-Fc:ActRIIB(L79E)-Fc heteromer
